The supplement of paper PMC10126150
± gives the standard deviation of the averaged measurements.

Test system: ATP
Experiment: switch fluorescence ratio, 500 uM ATP over buffer (Cy3 cluster intensity, sum of 5 cycles each) (fold (ratio)); higher = stronger signal-on switching upon ATP binding; sequences stand for … in TCGTCGGCAGCGTCAGATGTGTATAAGAGACAGTTTTTTTTTTTTTTTTTTTTTTTTT…TC
Conditions: aptamer strand: ATP DNA aptamer (quencher-CACCTGGGGGAGTATTGCGGAGGAAGG + anchor), 100 nM annealed; ATP concentration: 500 uM
Procedure, shortened: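 Switching-strand clusters labelled with Cy3 on a modified Illumina MiSeq flow-cell were annealed to 100 nM quencher-labelled ATP aptamer, imaged in selection buffer, and re-imaged after 15 min with 500 uM ATP at 22 °C. This was done over five cycles with NaOH stripping and re-annealing in between. The fluorescence ratio is summed target-cycle over summed buffer-cycle Cy3 intensity per cluster, averaged per switch-domain sequence, excluding clusters outside 100-1000 RFU.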
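Further: ATP exposure 15 min at 22 °C before imaging.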

| Sequence | switch fluorescence ratio |
| --- | --- |
| ATAAGGCATG | 0.975 ± 0.021 |
| ATAAGGCTCG | 0.966 ± 0.011 |
| ATAAGGGAAC | 1.04 ± 0.017 |
| ATAAGGGGAG | 0.999 ± 0.027 |
| ATAAGGGGGA | 0.998 ± 0.022 |
| ATAAGGGGTG | 1.02 ± 0.069 |
| ATAAGGGTTC | 1.03 ± 0.043 |
| ATAAGGTAG | 1.004 ± 0.0026 |
| ATAAGTAAAG | 1.01 ± 0.021 |
| ATAAGTATGA | 1.01 ± 0.034 |
| ATAAGTCACG | 1.06 ± 0.028 |
| ATAAGTGGCA | 0.944 ± 0.027 |
| ATAAGTGGG | 0.983 ± 0.018 |
| ATAAGTGTGT | 0.958 ± 0.047 |
| ATAAGTGTTA | 0.9898 ± 0.0031 |
| ATAAGTTGAT | 1.01 ± 0.03 |
| ATAAGTTGCT | 0.968 ± 0.024 |
| ATAAGTTTGG | 1.02 ± 0.033 |
| ATAATAATGG | 1 ± 0.037 |
| ATAATAGAGC | 1 ± 0.023 |
| ATAATATGAG | 0.993 ± 0.056 |
| ATAATATTGT | 0.999 ± 0.0022 |
| ATAATCGGCA | 1.01 ± 0.054 |
| ATAATCTGGT | 0.9965 ± 0.0049 |
| ATAATGCTCT | 1.02 ± 0.024 |

| Sequence | switch fluorescence ratio |
| --- | --- |
| ATAATGGCCT | 1.02 ± 0.026 |
| ATAATGGGGT | 1.026 ± 0.0044 |
| ATAATGTACA | 1.04 ± 0.011 |
| ATAATGTGGG | 0.99618 ± 0.00014 |
| ATAATGTTTT | 1 ± 0.021 |
| ATAATTAATT | 0.958 ± 0.03 |
| ATAATTCTAT | 0.9819 ± 0.008 |
| ATACAAGTCT | 1.03 ± 0.059 |
| ATACACGGCA | 1.11 ± 0.03 |
| ATACAGCACC | 1.45 ± 0.048 |
| ATACAGGGGG | 1.02 ± 0.067 |
| ATACATCTAG | 0.996 ± 0.044 |
| ATACCTGAG | 1.53 ± 0.057 |
| ATACGAGGTC | 1.01 ± 0.03 |
| ATACGAGGTG | 1.07 ± 0.035 |
| ATACGCTGGT | 0.9993 ± 0.0042 |
| ATACGGAGGC | 1.03 ± 0.1 |
| ATACGGGAGC | 1.01 ± 0.048 |
| ATACGGGGAT | 1.014 ± 0.0093 |
| ATACGGGGTT | 1.008 ± 0.0032 |
| ATACGGGTTT | 1.024 ± 0.0097 |
| ATACGGTTTT | 0.996 ± 0.026 |
| ATACGTAGTC | 1.07 ± 0.014 |
| ATACTAGGAG | 1 ± 0.026 |
| ATACTAGGGG | 1.01 ± 0.02 |

| Sequence | switch fluorescence ratio |
| --- | --- |
| ATACTCTGTT | 0.9926 ± 0.0031 |
| ATACTGAGGA | 1.05 ± 0.026 |
| ATACTGGTAG | 1.02 ± 0.047 |
| ATACTGTTAC | 1.359 ± 0.0057 |
| ATACTTAGGT | 1.07 ± 0.1 |
| ATACTTGTAT | 1.0048 ± 0.00054 |
| ATAGAAGAGA | 0.985 ± 0.027 |
| ATAGAAGTTA | 0.985 ± 0.031 |
| ATAGACAGGC | 1.04 ± 0.021 |
| ATAGACGCTA | 1.12 ± 0.017 |
| ATAGACGGTT | 1.02 ± 0.048 |
| ATAGACTAGA | 0.9856 ± 0.003 |
| ATAGACTGAG | 0.983 ± 0.012 |
| ATAGACTTCT | 0.9966 ± 0.0064 |
| ATAGACTTTA | 1.04 ± 0.043 |
| ATAGAGTGGG | 0.966 ± 0.019 |
| ATAGATGGTG | 0.987 ± 0.025 |
| ATAGATTGCC | 0.993 ± 0.022 |
| ATAGCAGTTA | 1.02 ± 0.01 |
| ATAGCCGGAC | 1.081 ± 0.008 |
| ATAGCCGGGT | 1.04 ± 0.088 |
| ATAGCGGAGA | 1 ± 0.036 |
| ATAGCTCTTA | 0.9764 ± 0.0074 |
| ATAGCTGGAA | 0.9678 ± 0.0011 |
| ATAGCTTCAC | 1.15 ± 0.015 |

| Sequence | switch fluorescence ratio |
| --- | --- |
| ATAGGAAGGA | 1.04 ± 0.056 |
| ATAGGAATGG | 1.02 ± 0.023 |
| ATAGGAGGGC | 0.935 ± 0.036 |
| ATAGGAGTGG | 0.964 ± 0.053 |
| ATAGGATGGA | 1 ± 0.029 |
| ATAGGATGTG | 1.01 ± 0.023 |
| ATAGGCCTTG | 1.01 ± 0.031 |
| ATAGGCGGTT | 1.02 ± 0.012 |
| ATAGGGCCAG | 1.06 ± 0.067 |
| ATAGGGGCAG | 0.996 ± 0.03 |
| ATAGGGGCTT | 0.9989 ± 0.0085 |
| ATAGGGGGCA | 0.98 ± 0.023 |
| ATAGGGGGTA | 1 ± 0.015 |
| ATAGGGGTTC | 0.994 ± 0.035 |
| ATAGGGTCGG | 1.02 ± 0.063 |
| ATAGGGTTTC | 0.99 ± 0.01 |
| ATAGGTCTGC | 0.975 ± 0.038 |
| ATAGTAAGCC | 1.04 ± 0.031 |
| ATAGTAATCG | 0.988 ± 0.064 |
| ATAGTAGGGG | 0.994 ± 0.045 |
| ATAGTAGTCG | 1.03 ± 0.1 |
| ATAGTATATG | 0.9786 ± 0.0088 |
| ATAGTATTGA | 0.969 ± 0.022 |
| ATAGTGAGTA | 0.996 ± 0.018 |
| ATAGTGCTTG | 0.988 ± 0.046 |

| Sequence | switch fluorescence ratio |
| --- | --- |
| ATAGTGGCGC | 0.997 ± 0.016 |
| ATAGTTACGC | 1.03 ± 0.022 |
| ATAGTTATTT | 0.989 ± 0.014 |
| ATAGTTGGGG | 1.02 ± 0.045 |
| ATAGTTTTCG | 1 ± 0.034 |
| ATATAAAACG | 0.983 ± 0.018 |
| ATATAAATTT | 1 ± 0.025 |
| ATATAACAGG | 1.03 ± 0.048 |
| ATATAATTTT | 0.979 ± 0.031 |
| ATATACCGTC | 1.05 ± 0.028 |
| ATATAGAGG | 1.02 ± 0.019 |
| ATATAGGGTT | 1.04 ± 0.038 |
| ATATAGTCTG | 0.9893 ± 0.0046 |
| ATATATATGG | 1.03 ± 0.035 |
| ATATATCGGG | 0.999 ± 0.013 |
| ATATATTCC | 1.1 ± 0.019 |
| ATATATTTTA | 1.01 ± 0.022 |
| ATATCAATC | 1.02 ± 0.034 |
| ATATCAATGG | 1.058 ± 0.0082 |
| ATATCCCAGG | 4.21 ± 0.64 |
| ATATCCCTCG | 1.01 ± 0.013 |
| ATATCCGGGA | 1.03 ± 0.015 |
| ATATCGGGGG | 1.01 ± 0.081 |
| ATATCGTCGG | 0.988 ± 0.028 |
| ATATCGTGCA | 0.9972 ± 0.006 |

| Sequence | switch fluorescence ratio |
| --- | --- |
| ATATCTGGCA | 1.02 ± 0.032 |
| ATATGATTGA | 0.9686 ± 0.0044 |
| ATATGCGAAC | 1.1 ± 0.035 |
| ATATGCGGGT | 0.985 ± 0.032 |
| ATATGCTAAG | 0.9935 ± 0.0099 |
| ATATGGAATT | 0.977 ± 0.0046 |
| ATATGGATGT | 0.997 ± 0.029 |
| ATATGGATTA | 1.012 ± 0.0068 |
| ATATGGGGGG | 0.998 ± 0.023 |
| ATATGGTCTA | 0.999 ± 0.053 |
| ATATGGTTGA | 0.964 ± 0.049 |
| ATATGTCTGG | 0.953 ± 0.017 |
| ATATGTGGAA | 1.015 ± 0.01 |
| ATATGTGGGA | 1.02 ± 0.033 |
| ATATGTGTGT | 0.995 ± 0.018 |
| ATATGTGTTG | 0.992 ± 0.0066 |
| ATATTACGAA | 1.02 ± 0.035 |
| ATATTAGGGC | 1.02 ± 0.015 |
| ATATTAGGGG | 1.01 ± 0.032 |
| ATATTATTTC | 1.006 ± 0.0058 |
| ATATTCGATT | 0.999 ± 0.027 |
| ATATTCTTCC | 1.96 ± 0.18 |
| ATATTGATGT | 1.01 ± 0.037 |
| ATATTGATTC | 1.01 ± 0.027 |
| ATATTGCTCG | 1.05 ± 0.06 |

| Sequence | switch fluorescence ratio |
| --- | --- |
| ATATTGCTGA | 0.978 ± 0.078 |
| ATATTGGAGA | 1.13 ± 0.25 |
| ATATTGGGGA | 1.01 ± 0.025 |
| ATATTGGGTT | 0.9708 ± 0.0074 |
| ATATTGTAAC | 0.98 ± 0.013 |
| ATATTGTCCA | 1.02 ± 0.0039 |
| ATATTTAACC | 1.02 ± 0.025 |
| ATATTTCAGG | 0.999 ± 0.027 |
| ATATTTGCGT | 0.974 ± 0.021 |
| ATATTTGGAT | 1.03 ± 0.018 |
| ATATTTTACG | 1.02 ± 0.06 |
| ATATTTTAGC | 1.03 ± 0.074 |
| ATATTTTGTA | 0.983 ± 0.036 |
| ATCAAAAGCG | 0.96765 ± 0.00089 |
| ATCAAACGGG | 1.02 ± 0.029 |
| ATCAAATCGA | 1 ± 0.043 |
| ATCAAGGGTT | 0.991 ± 0.025 |
| ATCAAGGTTG | 0.978 ± 0.031 |
| ATCAAGTGAG | 0.998 ± 0.015 |
| ATCAATCTCG | 1.017 ± 0.0093 |
| ATCAATGAAG | 0.975 ± 0.023 |
| ATCAATGTCT | 0.994 ± 0.005 |
| ATCAATTTAG | 1.02 ± 0.038 |
| ATCACAACTG | 0.997 ± 0.15 |
| ATCACAATTT | 1.04 ± 0.017 |

| Sequence | switch fluorescence ratio |
| --- | --- |
| ATCACATTGG | 1.02 ± 0.071 |
| ATCACGATGG | 1.03 ± 0.019 |
| ATCACGTCTA | 1.024 ± 0.003 |
| ATCACGTTTT | 0.991 ± 0.051 |
| ATCAGAGCCG | 0.98 ± 0.083 |
| ATCAGATAGG | 1 ± 0.026 |
| ATCAGATATG | 0.9974 ± 0.0033 |
| ATCAGCAGGC | 1.6 ± 0.045 |
| ATCAGGAAAA | 1.02 ± 0.071 |
| ATCAGGGGGG | 1.02 ± 0.037 |
| ATCAGGGGTA | 1.26 ± 0.34 |
| ATCAGGGGTT | 1.34 ± 0.6 |
| ATCAGGTACG | 1.02 ± 0.033 |
| ATCAGGTTCT | 1.028 ± 0.0031 |
| ATCAGTGCGA | 1.036 ± 0.0081 |
| ATCAGTGGTA | 0.987 ± 0.028 |
| ATCATAGCGG | 1 ± 0.015 |
| ATCATATTAG | 1.01 ± 0.019 |
| ATCATTAATG | 1.01 ± 0.014 |
| ATCATTAGGA | 0.9922 ± 0.0046 |
| ATCATTTAGT | 0.982 ± 0.027 |
| ATCATTTGTC | 1.022 ± 0.0092 |
| ATCATTTGTT | 0.991 ± 0.017 |
| ATCCAAATGG | 1.01 ± 0.033 |
| ATCCAGGGGA | 0.989 ± 0.06 |
